The values below come from publication PMC8719770 (PLoS ONE, 2021).

Assay [1] has as its target T1, human PD-1 (recombinant; construct not stated for this experiment) (Homo sapiens, UniProt Q15116).
T1 construct: human PD-1; the ELISA and the SPR may have used different ones; SPR methods may stand in S1 File
Kind of assay: SPR; format not told in the text shown (S1 Fig b, c). The note with it: both partners purified. In general terms: In SPR one partner is held on a chip, and binding of the other changes the refractive index at the surface.

The target of assay [2] is T2, human PD-1 expressed on PD-1 transfected CHO-S cells (human, UniProt Q15116).
T2 construct: human PD-1 on the surface of transfected CHO-S cells; also called cell-surface expressed PD-1; membrane PD-1; source: CHO-S, transfected, on cells
The experiment in a line: flow cytometry on cells; competition: PD-1-transfected CHO-S cells with serial diluted antibody and 0.5 μg/mL biotin-labeled PD-L2, 4°C, 30 minutes; streptavidin-PE. The note with it: one partner purified. For orientation: In flow cytometry, cells or beads pass a laser one at a time.

Another assay concerns the target T3, rat PD-1 ECD-Fc (Rattus norvegicus, UniProt D3ZIN8).
T3 construct: rat PD-1 extracellular domain; also called murine PD-1; source: bought: Sino Biological Inc
Kind of assay: ELISA; PD-1-Fc proteins (9 ng per well) immobilized on 96-well plate overnight at 4°C; serial diluted HLX10, one hour at room temperature; detected with peroxidase-labeled goat anti-human IgG F(ab)'2. The note with it: both partners purified. (In general: ELISA stands for enzyme-linked immunosorbent assay.)

Another assay deals with T4, mouse PD-1-ECD-Fc (Mus musculus, UniProt Q02242).
T4 construct: mouse PD-1 extracellular domain; also called murine PD-1; source: bought: Sino Biological Inc
Described as above. The note with it: both partners purified.

The target in assay [3] is T2, human PD-1 expressed on PD-1 …. Kind of assay: flow cytometry on cells; competition: PD-1-transfected CHO-S cells with serial diluted antibody and 5 μg/mL biotin-labeled PD-L1, 4°C, 30 minutes; streptavidin-PE. The note with it: one partner purified.
Assay [4] addresses T5, recombinant cynomolgus monkey PD-1 His tag (Macaca fascicularis (cynomolgus monkey), UniProt B0LAJ3).
T5 construct: cynomolgus monkey PD-1 extracellular domain; also called cynomolgus PD-1; source: bought: R&D Systems
The experiment in a line: BLI; Octet Red96; antibodies (5 μg/ml) captured on protein A biosensor tips; serial dilution of PD-1 as analyte, 120 sec association, 300 sec dissociation; HBS-EP+ pH 7.4, 25°C, 1000 rpm; global 1:1 fit; apparent constants. The note with it: both partners purified.

B1: HLX10, fully humanized IgG4 monoclonal antibody against PD-1 receptor (antibody, V domains shown)
VH: QVQLVESGGGLVKPGGSLRLSCAASGFTFSNYGMSWIRQAPGKGLEWVSTISGGGSNIYYADSVKGRFTISRDNAKNSLYLQMNSLRAEDTAVYYCVSYYYGIDFWGQGTSVTVSS
VL: DIQMTQSPSSLSASVGDRVTITCKASQDVTTAVAWYQQKPGKAPKLLIYWASTRHTGVPSRFSGSGSGTDFTLTISSLQPEDFATYYCQQHYTIPWTFGGGTKLEIK
notes: humanized VH (CDRs of chimeric c1G4 grafted on human germline IGHV3-11*04) on a human IgG4 constant region; humanized VL (CDRs of chimeric c1G4 grafted on human germline IGKV1-39*01); IgG4, hinge-stabilized; the PDB entry holds the Fab only; also called h1G4; hIG4
The IC50 is the concentration that inhibits the measured activity by half. For orientation: koff means the rate constant with which the complex falls apart. The kon is the rate constant with which the complex forms. For B1, the Kd in assay [1] amounted to 0.32 nM; in assay [4] it was 4.78 ± 0.16 nM. The IC50 in assay [2] was 6.46 nM; in assay [3], 4.36 nM. Moreover, the binding result in the assay with rat PD-1 ECD-Fc and with mouse PD-1-ECD-Fc was “no binding” throughout. Also, the koff in assay [4] came out at 0.000745 s⁻¹. In assay [4], the kon came out at 153000 M⁻¹ s⁻¹.
